These results are taken from publication PMC3772951 (PLoS ONE, 2013).

For assay [1], the target named is T1, A subunit of Enterococcus hirae V-ATPase, wild type (Enterococcus hirae, UniProt Q08636 1-593).
T1 construct: A subunit of Enterococcus hirae V-ATPase; synthetic gene with E. coli codon usage in pET23d; also called A monomer; source: E. coli BL21 (DE3), purified
T1 sequence (looked up): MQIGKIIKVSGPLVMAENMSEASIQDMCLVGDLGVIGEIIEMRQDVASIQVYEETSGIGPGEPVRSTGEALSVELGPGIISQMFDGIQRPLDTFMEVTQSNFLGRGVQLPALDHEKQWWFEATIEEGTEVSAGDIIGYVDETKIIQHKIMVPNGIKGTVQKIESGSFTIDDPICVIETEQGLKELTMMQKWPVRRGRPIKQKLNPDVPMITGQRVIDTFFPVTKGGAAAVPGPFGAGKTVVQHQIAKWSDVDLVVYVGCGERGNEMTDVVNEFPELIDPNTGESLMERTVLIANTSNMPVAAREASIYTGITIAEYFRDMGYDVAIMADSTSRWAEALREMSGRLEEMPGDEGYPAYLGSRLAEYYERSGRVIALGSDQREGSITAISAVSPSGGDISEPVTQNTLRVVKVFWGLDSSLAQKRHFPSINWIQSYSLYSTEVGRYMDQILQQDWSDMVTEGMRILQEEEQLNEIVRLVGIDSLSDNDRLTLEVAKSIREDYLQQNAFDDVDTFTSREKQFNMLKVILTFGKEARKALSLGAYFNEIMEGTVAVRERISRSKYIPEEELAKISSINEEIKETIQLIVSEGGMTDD
The assay is described as follows: native gel or EMSA; purified A3B3 and DF complexes mixed in a 1:5 molar ratio, 1 h on ice; formation of A3B3DF (V1) confirmed by basic native-PAGE. As to conditions: both partners purified.

The target in assay [2] is T2, B subunit of Enterococcus hirae V-ATPase, wild type (Enterococcus hirae, UniProt Q08637 1-458).
T2 construct: B subunit of Enterococcus hirae V-ATPase; synthetic gene with E. coli codon usage in pET23d; also called B monomer; source: E. coli BL21 (DE3), purified
T2 sequence (looked up): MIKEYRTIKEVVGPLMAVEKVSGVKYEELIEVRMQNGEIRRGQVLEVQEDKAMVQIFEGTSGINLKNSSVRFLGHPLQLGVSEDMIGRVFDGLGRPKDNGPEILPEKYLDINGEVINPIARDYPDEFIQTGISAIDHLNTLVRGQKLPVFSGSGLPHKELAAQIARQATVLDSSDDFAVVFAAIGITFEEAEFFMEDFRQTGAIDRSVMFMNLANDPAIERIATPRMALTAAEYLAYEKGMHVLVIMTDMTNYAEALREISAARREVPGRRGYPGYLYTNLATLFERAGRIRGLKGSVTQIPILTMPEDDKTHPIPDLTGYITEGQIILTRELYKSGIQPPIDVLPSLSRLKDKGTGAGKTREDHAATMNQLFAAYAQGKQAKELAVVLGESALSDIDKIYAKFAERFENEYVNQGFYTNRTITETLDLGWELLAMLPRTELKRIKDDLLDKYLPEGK
Described as above. As to conditions: both partners purified.

B1: D subunit of Enterococcus hirae V-ATPase, wild type (natural protein, UniProt P43435 1-210, looked up)
chain: MRLNVNPTRMELTRLKKQLTTATRGHKLLKDKQDELMRQFILLIRKNNELRQAIEKETQTAMKDFVLAKSTVEEAFIDELLALPAENVSISVVEKNIMSVKVPLMNFQYDETLNETPLEYGYLHSNAELDRSIDGFTQLLPKLLKLAEVEKTCQLMAEEIEKTRRRVNALEYMTIPQLEETIYYIKMKLEENERAEVTRLIKVKNMGTEE
notes: D subunit of Enterococcus hirae V-ATPase; Was never handled alone; stands here for the pairs of subunits inside the DF and A3B3DF complexes; source: E. coli cell-free protein expression system, synthesized together with F, purified
Regarding B1, the binding result in assay [1] and in assay [2] was “binds” in each case.
